These results are taken from US20240270821A1, “GIP/GLP1/GCG TRI-RECEPTOR AGONISTS AND USES THEREOF” (priority 2023, published 2024).

Numbering of substitutions follows the chain as printed.

First the molecules themselves.
T1: human GIP receptor (human) (UniProt P48546)
T1 sequence (looked up): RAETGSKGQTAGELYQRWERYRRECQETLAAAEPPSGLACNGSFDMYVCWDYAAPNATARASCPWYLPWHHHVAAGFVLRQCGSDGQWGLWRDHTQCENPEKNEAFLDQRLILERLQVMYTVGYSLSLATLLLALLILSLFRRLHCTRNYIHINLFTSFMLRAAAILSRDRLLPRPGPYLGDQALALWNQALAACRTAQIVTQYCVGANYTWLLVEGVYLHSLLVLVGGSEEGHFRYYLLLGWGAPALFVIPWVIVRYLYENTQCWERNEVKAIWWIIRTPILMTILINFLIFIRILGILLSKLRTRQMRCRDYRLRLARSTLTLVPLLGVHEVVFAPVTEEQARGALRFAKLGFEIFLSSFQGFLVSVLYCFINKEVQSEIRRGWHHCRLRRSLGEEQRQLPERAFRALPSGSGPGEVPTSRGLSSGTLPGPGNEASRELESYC

B1: Example 276 (peptide)
chain: YXQGTFTSDFSXXLDKKAQXAFIEYLLEXGPSSGAPPPSGT
modifications: synthetic construct; SITE 2: note = 2-Aminoisobutyric Acid; SITE 12: note = L-ornithine; SITE 13: note = alpha-methyl-leucine; SITE 17: note = Lysine is chemically modified through conjugation of the epsilon-amino group of the Lysine side chain with (gamma-Glu)-(2-[2-(2-Amino-ethoxy)-ethoxy]-acetyl)
B2: Example 242 (peptide)
chain: B1 chain with P31X, T41S
modifications: Aib, Orn, αMeL, 4Pal; AEEA-γGlu-C18 diacid on Lys; amide; synthetic construct; SITE 2: note = 2-Aminoisobutyric Acid; SITE 12: note = L-ornithine; SITE 13: note = alpha-methyl-leucine; SITE 17: note = Lysine is chemically modified through conjugation of the epsilon-amino group of the Lysine side chain with (2-[2-(2-Amino-ethoxy)-ethoxy]-acetyl)-(gamma-Glu)
B3: Example 279 (peptide)
chain: B1 chain with T41X
modifications: synthetic construct; SITE 2: note = 2-Aminoisobutyric Acid; SITE 12: note = L-ornithine; SITE 13: note = alpha-methyl-leucine; SITE 17: note = Lysine is chemically modified through conjugation of the epsilon-amino group of the Lysine side chain with (2-[2-(2-Amino-ethoxy)-ethoxy]-acetyl)-(gamma-Glu)
B4: Example 250 (peptide)
chain: B1 chain with Y25W, X29G, S39T, T41S
modifications: synthetic construct; SITE 2: note = 2-Aminoisobutyric Acid; SITE 12: note = L-ornithine; SITE 13: note = alpha-methyl-leucine; SITE 17: note = Lysine is chemically modified through conjugation of the epsilon-amino group of the Lysine side chain with (2-[2-(2-Amino-ethoxy)-ethoxy]-acetyl)-(gamma-Glu)
B5: Example 256 (peptide)
chain: B1 chain with X29A, A35H, T41X
modifications: synthetic construct; SITE 2: note = 2-Aminoisobutyric Acid; SITE 12: note = L-ornithine; SITE 13: note = alpha-methyl-leucine; SITE 17: note = Lysine is chemically modified through conjugation of the epsilon-amino group of the Lysine side chain with (2-[2-(2-Amino-ethoxy)-ethoxy]-acetyl)2-(gamma-Glu)
B6: Example 254 (peptide)
chain: B1 chain with X29A, A35X, T41S
modifications: synthetic construct; SITE 2: note = 2-Aminoisobutyric Acid; SITE 12: note = L-ornithine; SITE 13: note = alpha-methyl-leucine; SITE 17: note = Lysine is chemically modified through conjugation of the epsilon-amino group of the Lysine side chain with (2-[2-(2-Amino-ethoxy)-ethoxy]-acetyl)2-(gamma-Glu)
B7: Example 255 (peptide)
chain: B1 chain with X29A, A35H, T41H
modifications: synthetic construct; SITE 2: note = 2-Aminoisobutyric Acid; SITE 12: note = L-ornithine; SITE 13: note = alpha-methyl-leucine; SITE 17: note = Lysine is chemically modified through conjugation of the epsilon-amino group of the Lysine side chain with (2-[2-(2-Amino-ethoxy)-ethoxy]-acetyl)2-(gamma-Glu)
B8: Example 253 (peptide)
chain: B1 chain with X29A, A35H, T41S
modifications: synthetic construct; SITE 2: note = 2-Aminoisobutyric Acid; SITE 12: note = L-ornithine; SITE 13: note = alpha-methyl-leucine; SITE 17: note = Lysine is chemically modified through conjugation of the epsilon-amino group of the Lysine side chain with (2-[2-(2-Amino-ethoxy)-ethoxy]-acetyl)2-(gamma-Glu)
B9: Example 74 (peptide)
chain: B1 chain with T41S
modifications: synthetic construct; SITE 2: note = 2-Aminoisobutyric Acid; SITE 12: note = L-ornithine; SITE 13: note = alpha-methyl-leucine; SITE 17: note = Lysine is chemically modified through conjugation of the epsilon-amino group of the Lysine side chain with (2-[2-(2-Amino-ethoxy)-ethoxy]-acetyl)-(gamma-Glu)
B10: Example 85 (peptide)
chain: B1 chain with E28A, X29G, T41D
modifications: synthetic construct; SITE 2: note = 2-Aminoisobutyric Acid; SITE 12: note = L-ornithine; SITE 13: note = alpha-methyl-leucine; SITE 17: note = Lysine is chemically modified through conjugation of the epsilon-amino group of the Lysine side chain with (2-[2-(2-Amino-ethoxy)-ethoxy]-acetyl)-(gamma-Glu)

Chain of human glucagon receptor (human) (P47871 26-477): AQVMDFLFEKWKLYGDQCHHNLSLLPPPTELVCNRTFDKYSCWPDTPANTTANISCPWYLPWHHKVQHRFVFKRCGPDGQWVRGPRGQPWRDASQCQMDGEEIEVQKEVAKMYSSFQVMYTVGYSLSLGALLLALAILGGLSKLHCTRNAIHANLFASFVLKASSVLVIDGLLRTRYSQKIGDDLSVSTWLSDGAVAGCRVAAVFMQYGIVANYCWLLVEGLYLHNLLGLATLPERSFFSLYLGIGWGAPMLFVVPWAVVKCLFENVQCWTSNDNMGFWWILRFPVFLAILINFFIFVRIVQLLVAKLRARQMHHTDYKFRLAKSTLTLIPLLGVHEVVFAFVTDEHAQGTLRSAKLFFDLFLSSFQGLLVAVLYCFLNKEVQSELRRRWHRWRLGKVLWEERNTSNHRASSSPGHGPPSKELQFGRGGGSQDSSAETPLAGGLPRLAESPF
Chain of human GLP-1R (SNAP-GLP-1R expressed in HEK293 cells) (human) (P43220 24-463): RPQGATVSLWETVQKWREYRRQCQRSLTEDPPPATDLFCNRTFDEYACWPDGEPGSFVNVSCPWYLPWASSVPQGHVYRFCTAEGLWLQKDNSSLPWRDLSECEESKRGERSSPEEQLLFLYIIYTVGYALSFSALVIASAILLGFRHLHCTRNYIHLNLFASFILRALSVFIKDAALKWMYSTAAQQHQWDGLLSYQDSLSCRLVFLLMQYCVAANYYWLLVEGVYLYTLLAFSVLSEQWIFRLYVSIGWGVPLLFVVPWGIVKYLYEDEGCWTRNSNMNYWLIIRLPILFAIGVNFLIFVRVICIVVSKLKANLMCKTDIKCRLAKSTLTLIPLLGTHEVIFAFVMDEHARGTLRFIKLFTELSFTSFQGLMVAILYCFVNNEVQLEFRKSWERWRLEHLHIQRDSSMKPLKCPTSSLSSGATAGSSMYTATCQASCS
Chain of hGLP-1R (P43220 24-463): as above

One assay concerns the target hGLP-1R (Homo sapiens, UniProt P43220). Nature of the assay: cell-based or functional assay.
Turning to B1, the Relative cAMP EC50 amounted to 2.61 nM and the cAMP Rel EC50 (in the presence of 1% HSA) is 103 nM.

Turning to B2, the Relative cAMP EC50 was 3.42 nM and the cAMP Rel EC50, nM (1% HSA) worked out at 242 nM.

Turning to B3, the Relative cAMP EC50 was 5.77 nM and the cAMP Rel EC50 (in the presence of 1% HSA) amounted to 367 nM.

B4: the Relative cAMP EC50 is 2.08 nM and the cAMP Rel EC50 (in the presence of 1% HSA) is 194 nM.

Consider B5, for which the Relative cAMP EC50 is 2.87 nM and the cAMP Rel EC50 (in the presence of 1% HSA) turned out to be 235 nM.

In the case of B6, the Relative cAMP EC50 came out at 3.08 nM and the cAMP Rel EC50 (in the presence of 1% HSA) was determined as 265 nM.

Turning to B7, the Relative cAMP EC50 was 1.9 nM and the cAMP Rel EC50 (in the presence of 1% HSA) came to 272 nM.

Regarding B8, the Relative cAMP EC50 came out at 2.2 nM and the cAMP Rel EC50 (in the presence of 1% HSA) came to 355 nM.

Another assay deals with human GLP1-R (SNAP-GLP-1R expressed in HEK293 cells) (human) (UniProt P43220). Nature of the assay: cell-based or functional assay.
Chain of human GLP1-R (SNAP-GLP-1R expressed in HEK293 cells) (human) (P43220 24-463): as above
B9 returned a GLP1R Internalization EC50 of 72.7 nM and an Internalization % TOP of 53.3%.

B10 yielded a GLP1R Internalization EC50 of 326 nM and an Internalization % TOP of 48.3%.

A further assay concerns the target human GLP-1R (SNAP-GLP-1R expressed in HEK293 cells) (human) (UniProt P43220). Nature of the assay: cell-based or functional assay.
As to B1, the GLP1R Internalization EC50 stood at 237 nM and the Internalization % TOP came to 68.4%.

B2 registered a GLP1R Internalization EC50 of 56 nM and an Internalization % TOP of 38.2%.

B3: the GLP1R Internalization EC50 was 115 nM and the Internalization % TOP stood at 37.5%.

B4 registered a GLP1R Internalization EC50 of 97 nM and an Internalization % TOP of 45%.

B5: the GLP1R Internalization EC50 amounted to 87.8 nM and the Internalization % TOP was determined as 43.5%.

Molecule B6 gave a GLP1R Internalization EC50 of 31.9 nM and an Internalization % TOP of 47.8%.

The molecule B7 gave a GLP1R Internalization EC50 of 47.1 nM and an Internalization % TOP of 51.8%.

The molecule B8 had a GLP1R Internalization EC50 of 81.6 nM and an Internalization % TOP of 55.2%.

A further assay concerns the target T1, human GIP receptor (human). Nature of the assay: cell-based or functional assay.
With B1, the Relative cAMP EC50 is 0.0708 nM and the cAMP Rel EC50 (in the presence of 1% HSA) was determined as 6.28 nM.

In turn, B2 showed a Relative cAMP EC50 of 0.0916 nM and a cAMP Rel EC50, nM (1% HSA) of 5.94 nM.

B3: the Relative cAMP EC50 worked out at 0.105 nM and the cAMP Rel EC50 (in the presence of 1% HSA) worked out at 11.6 nM.

Turning to B4, the Relative cAMP EC50 turned out to be 0.154 nM and the cAMP Rel EC50 (in the presence of 1% HSA) is 11.7 nM.

Consider B5, for which the Relative cAMP EC50 came out at 0.176 nM and the cAMP Rel EC50 (in the presence of 1% HSA) was 17.4 nM.

B6: the Relative cAMP EC50 is 0.121 nM and the cAMP Rel EC50 (in the presence of 1% HSA) was determined as 21.4 nM.

With B7, the Relative cAMP EC50 came out at 0.107 nM and the cAMP Rel EC50 (in the presence of 1% HSA) stood at 21.9 nM.

B8: the Relative cAMP EC50 is 0.115 nM and the cAMP Rel EC50 (in the presence of 1% HSA) came out at 26.6 nM.

The next assay concerns the target human glucagon receptor (human) (UniProt P47871). The experiment in a line: cell-based or functional assay.
B1: the Relative cAMP EC50 turned out to be 2.82 nM and the cAMP Rel EC50 (in the presence of 1% HSA) was found to be 113 nM.

As for B2, the Relative cAMP EC50 is 3.5 nM and the cAMP Rel EC50, nM (1% HSA) amounted to 484 nM.

In the case of B3, the Relative cAMP EC50 came to 5.06 nM and the cAMP Rel EC50 (in the presence of 1% HSA) worked out at 427 nM.

Take B4: the Relative cAMP EC50 amounted to 3.81 nM and the cAMP Rel EC50 (in the presence of 1% HSA) was found to be 201 nM.

Turning to B5, the Relative cAMP EC50 came out at 5.71 nM and the cAMP Rel EC50 (in the presence of 1% HSA) amounted to 625 nM.

Consider B6, for which the Relative cAMP EC50 turned out to be 4.9 nM and the cAMP Rel EC50 (in the presence of 1% HSA) was 767 nM.

B7: the Relative cAMP EC50 came to 5.48 nM and the cAMP Rel EC50 (in the presence of 1% HSA) stood at 883 nM.

Turning to B8, the Relative cAMP EC50 is 6.62 nM and the cAMP Rel EC50 (in the presence of 1% HSA) was 963 nM.
